Experimental data from the supplement of paper PMC10126150.
± gives the standard deviation of the averaged measurements.

Tested on: ATP
Test: switch fluorescence ratio, 500 uM ATP over buffer (Cy3 cluster intensity, sum of 5 cycles each) (fold (ratio)); higher = stronger signal-on switching upon ATP binding; sequences stand for … in TCGTCGGCAGCGTCAGATGTGTATAAGAGACAGTTTTTTTTTTTTTTTTTTTTTTTTT…TC
Settings: aptamer strand: ATP DNA aptamer (quencher-CACCTGGGGGAGTATTGCGGAGGAAGG + anchor), 100 nM annealed; ATP concentration: 500 uM
Summary of the method: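 Clusters with intensities outside 100-1000 RFU were excluded. The remaining Cy3-labelled switching-strand clusters on a modified Illumina MiSeq flow-cell had been annealed to 100 nM quencher-labelled ATP aptamer and imaged in selection buffer, then after 15 min with 500 uM ATP at 22 °C, for five cycles separated by NaOH stripping and re-annealing. The fluorescence ratio, averaged per switch-domain sequence, is each cluster's summed target-cycle Cy3 intensity over its summed buffer-cycle Cy3 intensity.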
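Further: ATP exposure 15 min at 22 °C before imaging.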

| Sequence | switch fluorescence ratio |
| --- | --- |
| ACGTTTGAGG | 0.988 ± 0.014 |
| ACGTTTGAGT | 0.99 ± 0.016 |
| ACTAAGAGGG | 1.048 ± 0.0032 |
| ACTAAGGCTC | 1.04 ± 0.051 |
| ACTAAGGGG | 1.25 ± 0.35 |
| ACTAATCGTG | 1.02 ± 0.011 |
| ACTAATTGA | 0.996 ± 0.027 |
| ACTACGATAT | 1.34 ± 0.022 |
| ACTACGCCCG | 1.37 ± 0.085 |
| ACTACTACCA | 1.31 ± 0.048 |
| ACTAGACTAG | 0.984 ± 0.044 |
| ACTAGGGGGG | 1.01 ± 0.022 |
| ACTAGGGTAT | 0.982 ± 0.061 |
| ACTAGGGTGC | 1.14 ± 0.014 |
| ACTAGGGTTG | 0.993 ± 0.02 |
| ACTAGGTATT | 1.03 ± 0.033 |
| ACTAGGTCAT | 1.03 ± 0.017 |
| ACTAGGTGGG | 1.01 ± 0.041 |
| ACTAGTAGTC | 0.994 ± 0.012 |
| ACTAGTGCGG | 1.01 ± 0.028 |
| ACTAGTTGTC | 0.991 ± 0.033 |
| ACTATATGAT | 1.08 ± 0.043 |
| ACTATATTGG | 1.065 ± 0.0095 |
| ACTATCGGTT | 1.07 ± 0.075 |
| ACTATGCTTT | 1.021 ± 0.0059 |

| Sequence | switch fluorescence ratio |
| --- | --- |
| ACTATGGATG | 1.02 ± 0.036 |
| ACTATGGGGG | 0.995 ± 0.036 |
| ACTATGTAGG | 0.979 ± 0.013 |
| ACTATTGGTA | 1.03 ± 0.046 |
| ACTATTTGCA | 1.019 ± 0.0057 |
| ACTCAATGCA | 1.06 ± 0.045 |
| ACTCACGGGA | 1.46 ± 0.36 |
| ACTCAGCGCG | 1.08 ± 0.029 |
| ACTCATATAT | 1.02 ± 0.0045 |
| ACTCATGACG | 1.045 ± 0.0025 |
| ACTCATTTAC | 1.21 ± 0.096 |
| ACTCGATACG | 1.07 ± 0.037 |
| ACTCGGACCG | 1.0425 ± 0.00055 |
| ACTCGGGGTG | 0.998 ± 0.025 |
| ACTCGGTGGG | 1.01 ± 0.035 |
| ACTCGGTTTG | 0.949 ± 0.067 |
| ACTCGTTGTC | 1.02 ± 0.035 |
| ACTCGTTTCG | 1 ± 0.013 |
| ACTCTAGGTG | 3.47 ± 0.091 |
| ACTCTGGGTC | 1.07 ± 0.016 |
| ACTCTGGTCA | 0.986 ± 0.027 |
| ACTCTGTTTT | 1.01 ± 0.012 |
| ACTCTTACTT | 1.157 ± 0.0042 |
| ACTCTTAGGG | 1.03 ± 0.027 |
| ACTCTTTCGG | 1 ± 0.063 |

| Sequence | switch fluorescence ratio |
| --- | --- |
| ACTGAGTGGC | 1.06 ± 0.029 |
| ACTGATACGT | 1.12 ± 0.017 |
| ACTGATGAAG | 0.991 ± 0.049 |
| ACTGCAAGGA | 1.029 ± 0.0078 |
| ACTGCGAATA | 1.41 ± 0.021 |
| ACTGCTGGGA | 1.01 ± 0.015 |
| ACTGGATCAC | 1.099 ± 0.0035 |
| ACTGGATTGG | 1.01 ± 0.042 |
| ACTGGATTTG | 0.9885 ± 0.002 |
| ACTGGCATCC | 1.08 ± 0.029 |
| ACTGGCGGCG | 1 ± 0.012 |
| ACTGGCGTGC | 1.04 ± 0.07 |
| ACTGGGAGTG | 1 ± 0.042 |
| ACTGGGATC | 1.01 ± 0.019 |
| ACTGGGATCA | 1.03 ± 0.02 |
| ACTGGGGAGG | 1.01 ± 0.022 |
| ACTGGGGGAA | 0.97 ± 0.018 |
| ACTGGGGGAG | 1.02 ± 0.015 |
| ACTGGTTATC | 1.02 ± 0.046 |
| ACTGGTTATT | 1 ± 0.016 |
| ACTGGTTCGT | 0.998 ± 0.012 |
| ACTGTAAGGC | 1.07 ± 0.02 |
| ACTGTAATTC | 1.19 ± 0.041 |
| ACTGTAATTT | 1.18 ± 0.027 |
| ACTGTACGCA | 1.51 ± 0.086 |

| Sequence | switch fluorescence ratio |
| --- | --- |
| ACTGTGCACC | 1.05 ± 0.052 |
| ACTGTGCCGG | 1.02 ± 0.043 |
| ACTGTGGGGC | 0.9788 ± 0.0057 |
| ACTGTGTTAT | 0.983 ± 0.02 |
| ACTGTTAGTA | 1.01 ± 0.011 |
| ACTGTTATAT | 1.044 ± 0.0053 |
| ACTTAAAAAC | 1.08 ± 0.055 |
| ACTTACGGCG | 1.168 ± 0.0051 |
| ACTTAGCAGG | 1.08 ± 0.013 |
| ACTTAGGCG | 1.05 ± 0.086 |
| ACTTAGGGGG | 1.01 ± 0.024 |
| ACTTCAGGGA | 1.01 ± 0.024 |
| ACTTCGGGGC | 1.12 ± 0.027 |
| ACTTGAACGG | 1.16 ± 0.034 |
| ACTTGAAGGT | 1.02 ± 0.017 |
| ACTTGCTTTA | 1.04 ± 0.017 |
| ACTTGGGAAT | 1.03 ± 0.02 |
| ACTTGTGAAG | 1.0247 ± 0.00063 |
| ACTTGTGCAG | 0.978 ± 0.026 |
| ACTTGTGCTT | 0.9728 ± 0.0027 |
| ACTTGTGGCT | 1.01 ± 0.018 |
| ACTTGTTATG | 0.996 ± 0.028 |
| ACTTGTTTAT | 0.981 ± 0.032 |
| ACTTGTTTTT | 0.99 ± 0.033 |
| ACTTTACGGC | 1.286 ± 0.0091 |

| Sequence | switch fluorescence ratio |
| --- | --- |
| ACTTTAGCAG | 1.034 ± 0.0063 |
| ACTTTCAGCC | 1.03 ± 0.017 |
| ACTTTCGGTT | 1.003 ± 0.0023 |
| ACTTTGATTG | 0.982 ± 0.024 |
| ACTTTGCCAC | 1.18 ± 0.016 |
| ACTTTGCTAG | 1.03 ± 0.024 |
| ACTTTGGCGT | 1.03 ± 0.014 |
| ACTTTGGGTT | 1.01 ± 0.023 |
| ACTTTGGTGG | 1 ± 0.029 |
| ACTTTGTATG | 1 ± 0.017 |
| ACTTTTACTC | 1.16 ± 0.014 |
| ACTTTTGCGG | 1.021 ± 0.0092 |
| ACTTTTTGGC | 0.975 ± 0.022 |
| ACTTTTTTT | 1 ± 0.0022 |
| AGAAAAAGGT | 1.01 ± 0.032 |
| AGAAAAGCAG | 1.02 ± 0.015 |
| AGAAAATAGA | 0.9789 ± 0.0084 |
| AGAAAATTAG | 1.02 ± 0.039 |
| AGAAAATTGT | 1.01 ± 0.025 |
| AGAAAATTTT | 1.03 ± 0.031 |
| AGAAACAAAC | 1.041 ± 0.0083 |
| AGAAAGCGCG | 1.05 ± 0.019 |
| AGAAAGGGGC | 1.31 ± 0.31 |
| AGAAAGGGTT | 0.98 ± 0.022 |
| AGAAAGGTAT | 1.11 ± 0.25 |

| Sequence | switch fluorescence ratio |
| --- | --- |
| AGAAAGTCAA | 1.0199 ± 1.9e-05 |
| AGAAATCGGA | 1.038 ± 0.0056 |
| AGAACAGCAT | 1.01 ± 0.021 |
| AGAACAGGTG | 3.18 ± 0.27 |
| AGAACTCACC | 1.19 ± 0.049 |
| AGAACTCTTT | 1.02 ± 0.022 |
| AGAAGAAGTA | 0.9955 ± 0.0035 |
| AGAAGCTAAG | 0.996 ± 0.015 |
| AGAAGGAGGT | 0.9874 ± 0.0089 |
| AGAAGGCCGG | 0.98 ± 0.056 |
| AGAAGGCGCG | 1.01 ± 0.038 |
| AGAAGGCGGG | 0.985 ± 0.029 |
| AGAAGGGGAC | 1.02 ± 0.026 |
| AGAAGGGGG | 0.968 ± 0.022 |
| AGAAGGGGGC | 0.989 ± 0.062 |
| AGAAGGGGGT | 1.02 ± 0.035 |
| AGAAGGGTTA | 1.01 ± 0.017 |
| AGAAGGTATG | 1.0001 ± 0.0006 |
| AGAAGTAAGA | 0.998 ± 0.0065 |
| AGAAGTGATA | 0.976 ± 0.023 |
| AGAAGTGGTC | 1.01 ± 0.031 |
| AGAATAATGG | 1 ± 0.022 |
| AGAATCGACG | 0.993 ± 0.056 |
| AGAATCGAGT | 1.01 ± 0.025 |
| AGAATCTTTC | 1.05 ± 0.071 |

| Sequence | switch fluorescence ratio |
| --- | --- |
| AGAATGGAGA | 1 ± 0.013 |
| AGAATGGATC | 1.01 ± 0.012 |
| AGAATGTCGA | 0.968 ± 0.068 |
| AGAATTAAGG | 1.01 ± 0.045 |
| AGAATTACTT | 1.001 ± 0.0092 |
| AGAATTAGAG | 0.969 ± 0.054 |
| AGAATTCCCT | 1.011 ± 0.01 |
| AGAATTCTAG | 1.01 ± 0.022 |
| AGAATTGGCA | 1 ± 0.037 |
| AGAATTTAAA | 0.992 ± 0.032 |
| AGACACTGAC | 1.45 ± 0.028 |
| AGACATAGAG | 1 ± 0.011 |
| AGACCCTTTT | 0.994 ± 0.037 |
| AGACCGAGAC | 1.18 ± 0.079 |
| AGACCTGGCC | 1.14 ± 0.011 |
| AGACGAAGT | 1 ± 0.019 |
| AGACGAGAAT | 1.09 ± 0.14 |
| AGACGATTAG | 0.977 ± 0.03 |
| AGACGGACGT | 1.05 ± 0.013 |
| AGACGGGTAG | 0.968 ± 0.032 |
| AGACGTAGTA | 1.03 ± 0.014 |
| AGACGTAGTG | 0.99 ± 0.029 |
| AGACGTCACT | 1.77 ± 0.12 |
| AGACTCAATG | 0.988 ± 0.07 |
| AGACTCCAAG | 1 ± 0.059 |

| Sequence | switch fluorescence ratio |
| --- | --- |
| AGACTGACAA | 1.1 ± 0.021 |
| AGACTGGTTG | 0.993 ± 0.035 |
| AGACTTTAGT | 1.01 ± 0.036 |
| AGACTTTGAG | 1.03 ± 0.061 |
| AGAGAAGATG | 1.01 ± 0.034 |
| AGAGAAGGTC | 1.017 ± 0.0086 |
| AGAGAAGTGA | 0.986 ± 0.032 |
| AGAGAATGGT | 0.999 ± 0.027 |
| AGAGACACAT | 1 ± 0.0086 |
| AGAGACATGC | 0.923 ± 0.085 |
| AGAGACCCCG | 0.971 ± 0.039 |
| AGAGACGAAT | 1.013 ± 0.0085 |
| AGAGAGGAGT | 0.982 ± 0.021 |
| AGAGAGGGCG | 0.888 ± 0.14 |
| AGAGAGGGGC | 0.971 ± 0.014 |
| AGAGAGGGGT | 1.01 ± 0.047 |
| AGAGAGGGTG | 1.06 ± 0.048 |
| AGAGATGTAG | 0.966 ± 0.023 |
| AGAGATTCAC | 1.03 ± 0.013 |
| AGAGCGTTGT | 0.977 ± 0.023 |
| AGAGCTGGGA | 0.965 ± 0.015 |
| AGAGGAGGTG | 1.02 ± 0.03 |
| AGAGGAGTGC | 0.958 ± 0.056 |
| AGAGGCCAAC | 1.002 ± 0.0062 |
| AGAGGCCGGG | 1 ± 0.032 |
